B1: Phospholipid-transporting ATPase VB (Homo sapiens), O94823-1 (parent)
chain: MALSVDSSWHRWQWRVRDGFPHCPSETTPLLSPEKGRQSYNLTQQRVVFPNNSIFHQDWEEVSRRYPGNRTCTTKYTLFTFLPRNLFEQFHRWANLYFLFLVILNWMPSMEVFHREITMLPLAIVLFVIMIKDGMEDFKRHRFDKAINCSNIRIYERKEQTYVQKCWKDVRVGDFIQMKCNEIVPADILLLFSSDPNGICHLETASLDGETNLKQRCVVKGFSQQEVQFEPELFHNTIVCEKPNNHLNKFKGYMEHPDQTRTGFGCESLLLRGCTIRNTEMAVGIVIYAGHETKAMLNNSGPRYKRSKIERRMNIDIFFCIGILILMCLIGAVGHSIWNGTFEEHPPFDVPDANGSFLPSALGGFYMFLTMIILLQVLIPISLYVSIELVKLGQVFFLSNDLDLYDEETDLSIQCRALNIAEDLGQIQYIFSDKTGTLTENKMVFRRCTIMGSEYSHQENAKRLETPKELDSDGEEWTQYQCLSFSARWAQDPATMRSQKGAQPLRRSQSARVPIQGHYRQRSMGHRESSQPPVAFSSSIEKDVTPDKNLLTKVRDAALWLETLSDSRPAKASLSTTSSIADFFLALTICNSVMVSTTTEPRQRVTIKPSSKALGTSLEKIQQLFQKLKLLSLSQSFSSTAPSDTDLGESLGANVATTDSDERDDASVCSGGDSTDDGGYRSSMWDQGDILESGSGTSLEEALEAPATDLARPEFCYEAESPDEAALVHAAHAYSFTLVSRTPEQVTVRLPQGTCLTFSLLCTLGFDSVRKRMSVVVRHPLTGEIVVYTKGADSVIMDLLEDPACVPDINMEKKLRKIRARTQKHLDLYARDGLRTLCIAKKVVSEEDFRRWASFRREAEASLDNRDELLMETAQHLENQLTLLGATGIEDRLQEGVPDTIATLREAGIQLWVLTGDKQETAVNIAHSCRLLNQTDTVYTINTENQETCESILNCALEELKQFRELQKPDRKLFGFRLPSKTPSITSEAVVPEAGLVIDGKTLNAIFQGKLEKKFLELTQYCRSVLCCRSTPLQKSMIVKLVRDKLRVMTLSIGDGANDVSMIQAADIGIGISGQEGMQAVMSSDFAITRFKHLKKLLLVHGHWCYSRLARMVVYYLYKNVCYVNLLFWYQFFCGFSSSTMIDYWQMIFFNLFFTSLPPLVFGVLDKDISAETLLALPELYKSGQNSECYNLSTFWISMVDAFYQSLICFFIPYLAYKGSDIDVFTFGTPINTISLTTILLHQAMEMKTWTIFHGVVLLGSFLMYFLVSLLYNATCVICNSPTNPYWVMEGQLSNPTFYLVCFLTPVVALLPRYFFLSLQGTCGKSLISKAQKIDKLPPDKRNLEIQSWRSRQRPAPVPEVARPTHHPVSSITGQDFSASTPKSSNPPKRKHVEESVLHEQRCGTECMRDDSCSGDSSAQLSSGEHLLGPNRIMAYSRGQTDMCRCSKRSSHRRSQSSLTI
partner: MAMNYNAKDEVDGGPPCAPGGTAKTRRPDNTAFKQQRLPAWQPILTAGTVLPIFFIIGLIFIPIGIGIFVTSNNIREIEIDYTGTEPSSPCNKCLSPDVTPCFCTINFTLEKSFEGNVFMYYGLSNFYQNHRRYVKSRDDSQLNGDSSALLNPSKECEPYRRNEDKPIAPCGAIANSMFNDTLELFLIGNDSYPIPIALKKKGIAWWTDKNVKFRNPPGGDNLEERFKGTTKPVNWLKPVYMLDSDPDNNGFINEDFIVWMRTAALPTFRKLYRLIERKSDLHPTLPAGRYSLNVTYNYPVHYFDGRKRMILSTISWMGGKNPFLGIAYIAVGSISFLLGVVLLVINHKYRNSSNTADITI

Variants of: B1
Conditions: with TMEM30A

Row | Variant | effect of a mutation on the interaction
1 | V48L | with no effect
2 | E210A | with no effect
3 | G671R;N865K | with no effect

Continued, values first:

Row | effect of a mutation on the interaction | Variant
4 | with no effect | E993A
5 | with no effect | I1038T
